Results published in US20220112288A1 (published 2022).
Substitutions are numbered along the chain they refer to.

B1: 75110_13C07A (antibody, V domains shown)
VH: EVQLVESGGVLVQPGGSLRLSCAASGFTFSNYDMHWVRQATGKGLEWVSTIGTAGDTYYPGSVKGRFTLSRENAKNSLYLQMHSLRAGDTAVYYCARGAYGYYGMDVWGQGTTVTVSS
VL: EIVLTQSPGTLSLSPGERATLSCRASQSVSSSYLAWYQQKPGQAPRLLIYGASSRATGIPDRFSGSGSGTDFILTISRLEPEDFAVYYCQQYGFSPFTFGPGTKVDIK
notes: Tested as clonal hybridoma supernatant from AlivaMab Mouse Kappa mice: human variable regions, human kappa, mouse Fc
B2: 75110_11D03A (antibody, V domains shown)
VH: EVQLVESGGGLVQPGGSLRLSCAASGFTFSSYWMSWVRQAPGKGLEWVANINQDGNEKYYVDSVKGRFTISRDNAKNSLFLQMNSLRAEDTAVYYCAREGGQWLALDYWGQGALVTVSS
VL: DIQMTQSPSSVSASVGDRVTITCRASQGISSWLAWYQQKPGKAPKFLISGASSLQSGVPSRFSGSGSGTDFTLTISSLQPEDFATYYCQQANSFPWTFGQGTKVEIK
notes: as for B1
B3: 75110_12C19A (antibody, V domains shown)
VH: B2 VH with N52K, Q53E, N56S, E57D, F80Y, Y94H, A97V, A113T
VL: B2 VL with A13G, F46L, S49Y, A84V
notes: as for B1
B4: 75110_12H17A (antibody, V domains shown)
VH: B2 VH with S31D, N52K, Q53E
VL: B2 VL with S63T
notes: as for B1
B5: 75110_12H19A (antibody, V domains shown)
VH: B2 VH with K43Q, Q53E, Y60H, F68L, F80Y, A88G, E89V, Y95F
VL: B2 VL with T20S, F46L, S49Y, S53G
notes: as for B1
B6: 75110_12K21A (antibody, V domains shown)
VH: QVQLQQWGAGLLKPSETLSLTCAVSGGSFSGYYWSWIRQPPGKGLEWIGEINHSGSTNCNPSLKSRVTISVDTSNNQFSLKLSSVTAADTAVYYCARVLNYFDYWGQGTLVTVSS
VL: DIQMTQSPSSVSASVGDRVTITCRASPDIANWLAWYQQKPGKAPELLIYAASSLQSGVPSRFSGSGSGTDFTLTISSLQPEDFATYFCQQANSFPLTFGGGTKVESK
notes: as for B1
B7: 75110_13C13A (antibody, V domains shown)
VH: B6 VH with N75K, V92M, Y101F
VL: B6 VL with S7T, D28G, A30S
notes: as for B1
B8: 75110_13P21A (antibody, V domains shown)
VH: B6 VH
VL: B6 VL
notes: as for B1
B9: 75110_13P22A (antibody, V domains shown)
VH: B6 VH with V24A, S25Y, P40S, H53Q, S56N, C59Y, V71A, N75K, Y101W, T109I
VL: B2 VL with S31D, P40S, K45D, F46L, S49F, G50A, W96Y, V104L
notes: as for B1
B10: 75110_14G10A (antibody, V domains shown)
VH: EVQLVESGGGLVKPGGSLRLSCAASGFTFSSYSMNWVRQAPGKGLEWVSFISSSSSYIYYADSVKGRFTISRDNAKNSLYLQMNSLRAEDTAVYYCARERGDDYGDYEGAFDIWGQGTMVTVSS
VL: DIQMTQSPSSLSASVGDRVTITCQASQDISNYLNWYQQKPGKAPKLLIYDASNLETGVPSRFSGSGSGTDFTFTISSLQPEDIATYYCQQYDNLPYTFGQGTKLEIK
notes: as for B1
B11: 75110_14I16A (antibody, V domains shown)
VH: QVQLQESGPGLVKPSETLSLTCTVSNGSISSYYWSWIRQSAGKGLEWIGRIYTSGSTNYNPSLKSRVTMLVDTSKNQFSLKLSSVTAADTAVYYCARDREDYYYYGMDVWGQGTTVTVSS
VL: DIQMTQSPSSLSASVGDRVTITCQASHDISNYLNWYQQKPGKAPKLLLYYASNLETGVPSRFSGSGSGTDFTFTITSLQPEDIGTYSCQQYDNLPLTFGGGTKVEIK
notes: Tested as clonal hybridoma supernatant from AlivaMab Mouse Kappa mice: human variable regions, human kappa, mouse Fc; also called 75110_14116A
B12: 75110_14N19A (antibody, V domains shown)
VH: QVQLQESGPGLVKPSETLSLTCTVSGGSISRYYWSWIRQPAGKGLEWIGRICTSENPNYNPALKSRVTMSVDTSKNQFSLKLSSVTAADTAVYYCARELERLNYYGMDVWGQGTTVTVSS
VL: DIQMTQFPSSLSASVGDRVTITCQASQDISNYLNWYQQKPGKAPKLLIYDASNLESGVPSRFSGRGSGTDFTFTISSLQPEDFATFYCQQYDTLPITFGQGTRLEIK
notes: as for B1
B13: 75110_14P08A (antibody, V domains shown)
VH: QVQLQESGPGLVKSSETLSLTCTDSGDSIRSYYWNWIRQPAGKGLEWIGRIYASGSTNYNPSLKSRVIMSADTSKNRFSLKLSSVTAADTAVYYCARDGGVGDSLDYWGQGTLVTVSS
VL: DIVMTQTPLSLPVTPGEPASISCRSSQSLLDSDDGNTYLDWYLQKPGQSPQLLIYTLSYRASGVPDRFSGSGSGTDFTLKISRVEAEDVGVYYCMQRIEFPFTFGPGTKVDIK
notes: as for B1

Target: T1, human CD4 on human PBMCs (human, UniProt P01730 26-458)
T1 construct: whole, on cells; the CD4-positive gate was set with the control antibodies OKT4 and RPA-T4; also called hCD4
Test: FACS, clonal hybridoma supernatant on human PBMCs

Binder | % CD4 Stain | gMFI of CD4+
B1 | 37.5% | 56000 gMFI
B2 | 30.1% | 217000 gMFI
B3 | 24.4% | 56500 gMFI
B4 | 37.3% | 197000 gMFI
B5 | 36.8% | 284000 gMFI
B6 | 37.2% | 147000 gMFI
B7 | 28.6% | 123000 gMFI
B8 | 27.2% | 31800 gMFI
B9 | 37.5% | 185000 gMFI
B10 | 31.1% | 241000 gMFI
B11 | 33.2% | 298000 gMFI
B12 | 32.5% | 265000 gMFI
B13 | 28.3% | 58500 gMFI
